Test results reported in article PMC12167710.

Assays:
[1] = biological target: recombinant human IgG1λ isotype control antibody (clone AbD00264_hIgG1) (human)
[2] = biological target: recombinant mouse IgG1κ isotype control antibody (clone P3.6.2.8.1) (mouse)

B1: anti-human λ VHH (HuFab lambda 1) (VHH)
VHH: QVQLQDSGGGLVQPGGSLRLSCAASGFTLDYYAIGWFRQAPGKEREGVSCISSSDGSSDGYTYYADSVKGRFTISRDNAKNTVYLQMNNLKPEDTAVYYCAARLFGVATTDPSYFDSWGQGTQVTVSS
How did the Kd [1] turn out when B1 was run?
Its Kd is 1.35 nM.

B2: anti-mouse κ VHH (TP1170) (VHH)
VHH: QVQLVESGGGWVQPGGSLRLSCAASGFTFSDTAMMWVRQAPGKGREWVAAIDTGGGYTYYADSVKGRFTISRDNAKNTLYLQMNSLKPEDTARYYCAKTYSGNYYSNYTVANYGTTGRGTLVTVSS
B2 was tested. Which Kd [2] did it give?
Its Kd is 0.0167 nM.
